B1: I-1413 (peptide)
peptide: Ac-[αAllylPro]DN[B5(12)]DDAAFL[PyrS2″][3Thi][Bta]L-NH2
modifications: staple 1-4, 4-11
B2: I-2598 (peptide)
peptide: {5hexenyl″}-[αMeP]D[B5(3)]ADDAAF[PyrS2]L[3Thi][Bta]Q-NH2
modifications: staple 3-10; staple (positions not given here); not fully specified (bridges); printed as 5hexenyl-MePro-Asp-B5-Ala-Asp-Asp-Ala-Ala-Phe-PyrS2-Leu-3Thi-BztA-Gln-NH2
B3: I-2602 (peptide)
peptide: 5hexenyl-XD[B5(3)]AD[Phe(3-COOH)]AAF[PyrS2]L[3Thi][Bta]Q-NH2
modifications: staple 3-10; staple (positions not given here); not fully specified (residue 1, bridges); printed as 5hexenyl-MePro-Asp-B5-Ala-Asp-3COOHF-Ala-Ala-Phe-PyrS2-Leu-3Thi-BztA-Gln-NH2
B4: I-2601 (peptide)
peptide: 4pentenyl-XD[B5(3)]ADDAAF[PyrS2]L[3Thi][Bta]Q-NH2
modifications: staple 3-10; staple (positions not given here); not fully specified (residue 1, bridges); printed as 4pentenyl-MePro-Asp-B5-Ala-Asp-Asp-Ala-Ala-Phe-PyrS2-Leu-3Thi-BztA-Gln-NH2; also: -CH=CH- in each staple reduced to -CH2-CH2-
B5: I-2600 (peptide)
peptide: 5hexenyl-XD[B5(3)]ADDAAF[PyrS2]L[3Thi][Bta]Q-NH2
modifications: staple 3-10; staple (positions not given here); not fully specified (residue 1, bridges); printed as 5hexenyl-MePro-Asp-B5-Ala-Asp-Asp-Ala-Ala-Phe-PyrS2-Leu-3Thi-BztA-Gln-NH2; also: -CH=CH- in each staple reduced to -CH2-CH2-
B6: I-1021 (peptide)
peptide: Ac-[αAllylPro]D[tBuAla][B5(5)]DDAAFT[PyrS2″][Phe(2-F)][Bta]Q-NH2
modifications: staple 1-4, 4-11
B7: I-1042 (peptide)
peptide: Ac-[αAllylPro]D[Cha][B5(5)]DDAAFT[PyrS2″][Phe(2-Cl)][Bta]Q-NH2
modifications: staple 1-4, 4-11
B8: I-1032 (peptide)
peptide: Ac-[αAllylPro]D[tBuAla][B5(5)]DDAAFS[PyrS2″][Phe(2-Cl)][Bta][dT]-NH2
modifications: staple 1-4, 4-11
B9: I-1033 (peptide)
peptide: Ac-[αAllylPro]D[tBuAla][B5(5)]DDAAFT[PyrS2″][Phe(2-Cl)][Bta][dT]-NH2
modifications: staple 1-4, 4-11
B10: I-1036 (peptide)
peptide: Ac-[αAllylPro]D[tBuAla][B5(5)]DEAAFS[PyrS2″][Phe(2-Cl)][Bta][dT]-NH2
modifications: staple 1-4, 4-11
B11: I-1037 (peptide)
peptide: Ac-[αAllylPro]D[tBuAla][B5(5)]DEAAFT[PyrS2″][Phe(2-Cl)][Bta][dT]-NH2
modifications: staple 1-4, 4-11
B12: I-1440 (peptide)
peptide: Ac-[αAllylPro]D[tBuAla][B5(5)]DQAAFL[PyrS2″][3Thi][Bta]Q-NH2
modifications: staple 1-4, 4-11
B13: I-1443 (peptide)
peptide: Ac-[αAllylPro]D[tBuAla][B5(4)]DSAAFL[PyrS2″][3Thi][Bta]Q-NH2
modifications: staple 1-4, 4-11
B14: I-1437 (peptide)
peptide: Ac-[αAllylPro]D[tBuAla][B5(5)]DEAAFL[PyrS2″][3Thi][Bta]Q-NH2
modifications: staple 1-4, 4-11
B15: I-1022 (peptide)
peptide: Ac-[αAllylPro]D[tBuAla][B5(5)]DNAAFT[PyrS2″][Phe(2-F)][Bta]Q-NH2
modifications: staple 1-4, 4-11
B16: I-1067 (peptide)
peptide: Ac-[αAllylPro]D[tBuAla][B5(3)]DEAAFL[PyrS2″][Phe(2-Cl)][Bta]S-NH2
modifications: staple 1-4, 4-11; also: staple stereoisomer: later eluting HPLC peak
B17: I-1065 (peptide)
peptide: Ac-[αAllylPro]D[tBuAla][B5(3)]DDAAFL[PyrS2″][Phe(2-Cl)][Bta]S-NH2
modifications: staple 1-4, 4-11; not fully specified; printed as Ac-PL3-Asp-Npg-B5-Asp-Asp-Ala-Ala-Phe-Leu-PyrS2-2C1F-BztA-Ser-NH2
B18: I-1064 (peptide)
peptide: Ac-[αAllylPro]D[tBuAla][B5(3)]DDAAFL[PyrS2][Phe(2-Cl)][Bta]S-NH2
modifications: staple 1-4, 4-11; not fully specified; printed as Ac-PL3-Asp-Npg-B5-Asp-Asp-Ala-Ala-Phe-Leu-PyrS2-2C1F-BztA-Ser-NH2
B19: I-1070 (peptide)
peptide: Ac-[αAllylPro]D[tBuAla][B5(3)]DEAAFL[PyrS2″][Phe(2-Cl)][Bta]T-NH2
modifications: staple 1-4, 4-11; not fully specified; printed as Ac-PL3-Asp-Npg-B5-Asp-Glu-Ala-Ala-Phe-Leu-PyrS2-2C1F-BztA-Thr-NH2
B20: I-1066 (peptide)
peptide: Ac-[αAllylPro]D[tBuAla][B5(3)]DEAAFL[PyrS2″][Phe(2-Cl)][Bta]S-NH2
modifications: staple 1-4, 4-11; not fully specified; printed as Ac-PL3-Asp-Npg-B5-Asp-Glu-Ala-Ala-Phe-Leu-PyrS2-2C1F-BztA-Ser-NH2
B21: I-1068 (peptide)
peptide: Ac-[αAllylPro]D[tBuAla][B5(3)]DDAAFL[PyrS2″][Phe(2-Cl)][Bta]T-NH2
modifications: staple 1-4, 4-11; not fully specified; printed as Ac-PL3-Asp-Npg-B5-Asp-Asp-Ala-Ala-Phe-Leu-PyrS2-2C1F-BztA-Thr-NH2
B22: I-1063 (peptide)
peptide: Ac-[αAllylPro]D[tBuAla][B5(3)]DEAAFL[PyrS2][Phe(2-Cl)][Bta]Q-NH2
modifications: staple 1-4, 4-11
B23: I-1069 (peptide)
peptide: Ac-[αAllylPro]D[tBuAla][B5(3)]DDAAFL[PyrS2″][Phe(2-Cl)][Bta]T-NH2
modifications: staple 1-4, 4-11; also: staple stereoisomer: later eluting HPLC peak

Starred links: 1 amine or outer side, 2 acyl side, 3 side chain; linkers in the order of their positions; H or OH if unused. Positions of bridges follow the written chain, without caps; N, C: chain ends. Non-standard residues stand in square brackets, D forms with d. Primed or numbered codes have the meaning given here. *: point of attachment. PyrS2″ = (S)-3-amino-1-((pent-4-en-1-yloxy)carbonyl)pyrrolidine-3-carboxylic acid (stapling residue), C=CCCCOC(=O)N1CC[C@@](N[*:1])(C(=O)[*:2])C1; B5(16) = 2-amino-2-(pent-4-en-1-yl)hept-6-enoic acid = 2,2-bis(4-pentenyl)glycine (stitching residue), C=CCCCC(CCCC=C)(N[*:1])C(=O)[*:2]; B5(4) = 2,2-bis(4-pentenyl)glycine = 2-amino-2-(pent-4-en-1-yl)hept-6-enoic acid (stitching residue), C=CCCCC(CCCC=C)(N[*:1])C(=O)[*:2]; B5(5) = 2,2-bis(4-pentenyl)glycine, 2-amino-2-(pent-4-en-1-yl)hept-6-enoic acid (stitching residue), C=CCCCC(CCCC=C)(N[*:1])C(=O)[*:2]; PyrS2 = (S)-3-amino-1-((pent-4-en-1-yloxy)carbonyl)pyrrolidine-3-carboxylic acid, C=CCCCOC(=O)N1CC[C@@](N[*:1])(C(=O)[*:2])C1; B5(12) = 2-amino-2-(pent-4-en-1-yl)hept-6-enoic acid (two olefin side chains), C=CCCCC(CCCC=C)(N[*:1])C(=O)[*:2]; B5(3) = 2,2-bis(4-pentenyl)glycine (stitching residue), C=CCCCC(CCCC=C)(N[*:1])C(=O)[*:2]; 4pentenyl = N-terminal pent-4-enoic acid (acyl cap), C=CCCC(=O)*; 5hexenyl = N-terminal hex-5-enoic acid (acyl cap), C=CCCCC(=O)*; 5hexenyl″ = N-terminal hex-5-enoic acid cap, C=CCCCC(=O)*; Phe(3-COOH) = N[C@@H](Cc1cccc(C(=O)O)c1)C(=O)O; Phe(2-Cl) = N[C@@H](Cc1ccccc1Cl)C(=O)O; Phe(2-F) = N[C@@H](Cc1ccccc1F)C(=O)O; Bta = N[C@@H](Cc1csc2ccccc12)C(=O)O; αAllylPro = C=CC[C@@]1(C(=O)O)CCCN1; tBuAla = CC(C)(C)C[C@H](N)C(=O)O; 3Thi = N[C@@H](Cc1ccsc1)C(=O)O; Cha = N[C@@H](CC1CCCCC1)C(=O)O; αMeP = C[C@@]1(C(=O)O)CCCN1

One experiment concerns the target full-length beta-Catenin (Uniprot ID P35222) (Homo sapiens (Human)) (UniProt P35222). As to the kind of experiment: fluorescence polarization competition; full-length beta-catenin, competitor 5FAM-TCF4 10-53 probe.
Target sequence in this assay (P35222 2-781 limits assumed): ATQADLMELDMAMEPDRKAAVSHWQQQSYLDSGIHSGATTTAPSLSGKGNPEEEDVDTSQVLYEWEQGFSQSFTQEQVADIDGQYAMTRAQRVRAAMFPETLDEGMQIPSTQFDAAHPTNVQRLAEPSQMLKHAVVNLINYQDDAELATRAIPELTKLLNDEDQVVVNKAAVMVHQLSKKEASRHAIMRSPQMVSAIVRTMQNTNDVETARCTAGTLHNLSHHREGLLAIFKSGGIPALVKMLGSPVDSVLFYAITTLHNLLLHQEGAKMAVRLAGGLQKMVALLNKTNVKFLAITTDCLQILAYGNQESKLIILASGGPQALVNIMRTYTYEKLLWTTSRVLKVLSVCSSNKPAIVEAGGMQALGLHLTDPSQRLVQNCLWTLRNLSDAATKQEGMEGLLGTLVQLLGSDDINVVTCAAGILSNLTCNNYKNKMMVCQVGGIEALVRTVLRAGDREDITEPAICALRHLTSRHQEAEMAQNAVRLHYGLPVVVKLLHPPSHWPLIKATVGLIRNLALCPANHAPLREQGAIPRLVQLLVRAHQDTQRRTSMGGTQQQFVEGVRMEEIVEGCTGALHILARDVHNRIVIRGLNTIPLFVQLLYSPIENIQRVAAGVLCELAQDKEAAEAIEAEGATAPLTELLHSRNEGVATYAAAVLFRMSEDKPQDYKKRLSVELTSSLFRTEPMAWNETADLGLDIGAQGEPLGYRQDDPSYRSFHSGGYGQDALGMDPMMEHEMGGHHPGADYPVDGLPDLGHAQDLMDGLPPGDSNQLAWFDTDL
As usually defined, the IC50 is the concentration that gives 50% inhibition. A high value points to weaker potency. Consider B1, for which the half-maximal inhibitory concentration (IC50) stood at 74 nM.

For a further experiment the target is unchanged. As to the kind of experiment: fluorescence polarization competition against 5FAM TCF4 10-53 probe. A general note: Polarisation of emitted light reports the rotation of a fluorescent probe.
Target sequence in this assay (P35222 whole entry, one chain of several): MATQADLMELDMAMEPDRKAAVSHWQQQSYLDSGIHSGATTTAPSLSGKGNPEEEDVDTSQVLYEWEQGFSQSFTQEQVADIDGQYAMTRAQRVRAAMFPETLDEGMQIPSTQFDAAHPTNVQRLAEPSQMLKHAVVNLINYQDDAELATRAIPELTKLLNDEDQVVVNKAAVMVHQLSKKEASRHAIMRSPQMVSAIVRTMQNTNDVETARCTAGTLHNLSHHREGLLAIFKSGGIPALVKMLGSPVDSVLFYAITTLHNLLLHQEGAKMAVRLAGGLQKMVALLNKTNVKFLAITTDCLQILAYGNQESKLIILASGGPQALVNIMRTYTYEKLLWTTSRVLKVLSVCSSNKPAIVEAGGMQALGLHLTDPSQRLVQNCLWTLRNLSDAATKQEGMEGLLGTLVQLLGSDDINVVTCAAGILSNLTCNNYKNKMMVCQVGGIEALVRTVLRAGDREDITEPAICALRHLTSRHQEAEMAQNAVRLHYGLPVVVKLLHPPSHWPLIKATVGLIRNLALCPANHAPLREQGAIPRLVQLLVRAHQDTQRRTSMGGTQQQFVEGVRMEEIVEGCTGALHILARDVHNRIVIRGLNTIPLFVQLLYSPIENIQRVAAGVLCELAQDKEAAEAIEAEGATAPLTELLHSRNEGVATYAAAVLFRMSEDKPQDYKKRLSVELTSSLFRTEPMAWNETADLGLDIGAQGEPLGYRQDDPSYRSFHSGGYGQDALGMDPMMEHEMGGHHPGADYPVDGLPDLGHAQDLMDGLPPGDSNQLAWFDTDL
For the molecule B2, the concentration for half-maximal inhibition (IC50) was determined as 1350 nM.
On the same count and under the same terms, in the case of B3 it was 8220 nM; in that of B4, 592 nM.
Same read-out and setting: in the case of B5 it was 923 nM.

The next experiment addresses Bcat-Halo (UniProt P35222). As to the kind of experiment: NanoBRET Abs IC50, Bcat-Halo/TCF4-Luc in HEK293 cells. For orientation: BRET reads energy transfer from a luciferase to a nearby fluorophore.
B6 gave an IC50 of 11500 nM.

Another experiment has as its target full-length beta-Catenin (Uniprot ID P35222) (Homo sapiens (Human)) (UniProt P35222). As to the kind of experiment: fluorescence polarization competition; 10 nM full-length beta-catenin + 10 nM 5FAM-TCF4 10-53 as competitor probe.
Target sequence in this assay (P35222 2-781 limits assumed): as the sequence (P35222 2-781 limits assumed) above
In general, EC50 refers to the concentration at which the effect is half-maximal. With B7, the EC50 is 5 nM.
Still for that read-out and setting: in the case of B8 it was 15 nM.
B9: the half-maximal effective concentration (EC50) is 10 nM.
For B10, the EC50 was 29 nM.
Still for that read-out and setting: in the case of B11 it was 30 nM.

The target in a further experiment is beta-catenin (Homo sapiens (Human)) (UniProt P35222). As to the kind of experiment: fluorescence polarization competition; full-length beta-catenin with 5FAM-TCF4(10-53) probe as competitor.
Sequence of beta-catenin (Homo sapiens (Human)) (P35222 whole entry): as the sequence (P35222 whole entry, one chain of several) above
Take B12: the concentration for a half-maximal effect (EC50) was determined as 26 nM.
Same read-out and setting: in the case of B13 it was 24 nM; in that of B1, 74 nM; in that of B14, 7 nM.

The next experiment has as its target full-length beta-Catenin (Uniprot ID P35222) (Homo sapiens (Human)) (UniProt P35222). As to the kind of experiment: fluorescence polarization competition; full-length beta-catenin, competitor 5FAM-TCF4 10-53.
Target sequence in this assay (P35222 whole entry, one chain of several): as above
On to B15, for which the 50% inhibitory concentration (IC50) was 33 nM.
Still for that read-out and setting: in the case of B8 it was 15 nM.
The same measure, in the same setting: as for B9, the figure is 10 nM; as for B6, 5 nM.
The same measure, in the same setting: as for B10, the figure is 29 nM.
Consider B11, for which the IC50 turned out to be 30 nM.

Another experiment has the same target. As to the kind of experiment: fluorescence polarization competition; full-length beta-catenin with 5FAM-TCF4(10-53) probe, peptide titrated.
Target sequence in this assay (P35222 whole entry, one chain of several): as above
B16 displayed an IC50 of 517 nM.
Take B17: the half-maximal inhibitory concentration (IC50) turned out to be 520 nM.
The same measure, in the same setting: as for B18, the figure is 414 nM; as for B19, 1020 nM.
The same measure, in the same setting: as for B7, the figure is 5 nM; as for B20, 789 nM; as for B21, 950 nM.
Same read-out and setting: in the case of B22 it was 471 nM; in that of B23, 920 nM.

For the next experiment the target is unchanged. As to the kind of experiment: fluorescence polarization competition; full-length beta-catenin, competitor 5FAM-TCF4(10-53) probe.
Target sequence in this assay (P35222 whole entry, one chain of several): as above
For the molecule B16, the EC50 is 517 nM.
Same read-out and setting: as for B17, the figure is 520 nM; as for B18, 414 nM.
In turn, B12 came in with an IC50 of 26 nM.
B19 yielded an EC50 of 1020 nM.
The molecule B13 had a half-inhibitory concentration (IC50) of 24 nM.
For B20, the EC50 was found to be 789 nM.
On the same count and under the same terms, as for B21, the figure is 950 nM; as for B22, 471 nM.
Regarding B14, the IC50 turned out to be 7 nM.
Turning to B23, the EC50 is 920 nM.

A further experiment shares this target. As to the kind of experiment: fluorescence polarization competition; displaces 5FAM-TCF4(10-53) from full-length beta-catenin.
Target sequence in this assay (P35222 2-781 limits assumed): as the sequence (P35222 2-781 limits assumed) above
B15: the EC50 came out at 33 nM.
Same read-out and setting: in the case of B6 it was 5 nM.

The target of another experiment is Bcat-Halo (UniProt P35222). As to the kind of experiment: NanoBRET absolute IC50 in HEK293 cells; Bcat-Halo, competitor TCF4-Luc.
Sequence of Bcat-Halo (P35222 whole entry): as the sequence (P35222 whole entry, one chain of several) above
B12 yielded an IC50 of 20700 nM.
B15 yielded an IC50 of 13700 nM.
In the case of B8, the IC50 turned out to be 10400 nM.
Still for that read-out and setting: in the case of B13 it was 9500 nM; in that of B9, 8600 nM.
With B6, the half-inhibitory concentration (IC50) came to 11500 nM.
The same measure, in the same setting: as for B14, the figure is 7100 nM.
Same read-out and setting: as for B10, the figure is 16600 nM; as for B11, 4400 nM.

The values above are taken from patent US20240116985A1, “STAPLED PEPTIDES AND METHODS THEREOF” (priority 2020, published 2024).
